The record followed here is US20150203577A1 (Chugai, published 2015).

The target in assay [1] is T1, mouse FcγRIII (mouse, UniProt P08508 31-215).
T1 construct: Extracellular domain with C-terminal His tag, made in FreeStyle 293 cells; also called mFcγRIII; mFcgRIII
T1 chain: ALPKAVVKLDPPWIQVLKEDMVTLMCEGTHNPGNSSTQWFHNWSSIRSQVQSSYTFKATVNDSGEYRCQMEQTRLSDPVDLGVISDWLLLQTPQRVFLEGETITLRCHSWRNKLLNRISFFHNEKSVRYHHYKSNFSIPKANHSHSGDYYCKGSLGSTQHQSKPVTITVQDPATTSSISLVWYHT
In words: SPR (Biacore), antibody captured on Protein L. For orientation: SPR reads the build-up and loss of mass on a sensor chip optically.

In assay [2] the target is T2, mouse FcγRII (mouse, UniProt P08101 30-210).
T2 construct: Extracellular domain with C-terminal His tag, made in FreeStyle 293 cells; also called mFcγRII; mFcgRII
T2 sequence: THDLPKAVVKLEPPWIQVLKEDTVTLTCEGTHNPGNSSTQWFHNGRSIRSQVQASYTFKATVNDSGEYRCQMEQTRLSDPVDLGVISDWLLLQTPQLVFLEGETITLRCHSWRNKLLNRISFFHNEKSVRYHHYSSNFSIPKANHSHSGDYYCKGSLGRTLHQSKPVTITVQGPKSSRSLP
In words: SPR (Biacore), antibody captured on Protein L.

Assay [3] addresses T1, mouse FcγRIII. In words: SPR (Biacore), KD of H237-mIgG1/MRAL-k0 (same run) / KD of variant.
Assay [4] deals with T2, mouse FcγRII. The description is as above.

B1: H237-MB693/MRAL-k0 (antibody, mouse IgG1, kappa)
heavy: QVQLQESGPGLVKPSETLSLTCAVSGHSISHDHAWSWVRQPPGEGLEWIGFISYSGITNYNPSLQGRVTISRDNSKNTLYLQMNSLRAEDTAVYYCARSLARTTAMDYWGEGTLVTVSSAKTTPPSVYPLAPGSAAQTNSMVTLGCLVKGYFPEPVTVTWNSGSLSSGVHTFPAVLQSDLYTLSSSVTVPSSTWPSETVTCNVAHPASSTKVDKKIVPRDCGCKPCICTDYEVEYVFIFPPKPKDVLTITLTPKVTCVVVDISKDDPEVQFSWFVDDVEVHTAQTQPREEQFNSTFRSVSELPIMHQDWLNGKEFKCRVNSAAFPAPIEKTISKTKGRPKAPQVYTIPPPKEQMAKDKVSLTCMITDFFPEDITVEWQWNGQPAENYKNTQPIMDTDGSYFVYSKLNVQKSNWEAGNTFTCSVLHEGLHNHHTEKSLSHSPGK
light: not shown
notes: copies: 2 + 2
What is called Kd is the free concentration of one partner at which half of the binding sites on the other are occupied at equilibrium, for simple one-to-one binding. B1: the figures for the Kd with mouse FcγRIII [1] and with mouse FcγRII [2] were 5.41 µM and 267 nM, respectively. In the assay with mouse FcγRIII [3], the “relative mFcγRIII-binding activity (mIgG1 = 1)” value was 0.09 fold. In addition, the “relative mFcγRII-binding activity (mIgG1 = 1)” value in the assay with mouse FcγRII [4] worked out at 1.22 fold.

B2: H237-MB700/MRAL-k0 (antibody, mouse IgG1, kappa)
heavy: QVQLQESGPGLVKPSETLSLTCAVSGHSISHDHAWSWVRQPPGEGLEWIGFISYSGITNYNPSLQGRVTISRDNSKNTLYLQMNSLRAEDTAVYYCARSLARTTAMDYWGEGTLVTVSSAKTTPPSVYPLAPGSAAQTNSMVTLGCLVKGYFPEPVTVTWNSGSLSSGVHTFPAVLQSDLYTLSSSVTVPSSTWPSETVTCNVAHPASSTKVDKKIVPRDCGCKPCICEVPEEEYVFIFPPKPKDVLTITLTPKVTCVVVDISKDDPEVQFSWFVDDVEVHTAQTQPREEQFNSTFRSVSELPIMHQDWLNGKEFKCRVNSAAFPAPIEKTISKTKGRPKAPQVYTIPPPKEQMAKDKVSLTCMITDFFPEDITVEWQWNGQPAENYKNTQPIMDTDGSYFVYSKLNVQKSNWEAGNTFTCSVLHEGLHNHHTEKSLSHSPGK
light: not shown
notes: copies: 2 + 2
Take B2: the Kd in the assay with mouse FcγRIII [1] worked out at 11.6 µM; with mouse FcγRII [2], 582 nM. For the same molecule, in the assay with mouse FcγRIII [3], the “relative mFcγRIII-binding activity (mIgG1 = 1)” value is 0.04 fold. The “relative mFcγRII-binding activity (mIgG1 = 1)” value with mouse FcγRII [4] was 0.56 fold.

B3: H237-MB702/MRAL-k0 (antibody, mouse IgG1, kappa)
heavy: QVQLQESGPGLVKPSETLSLTCAVSGHSISHDHAWSWVRQPPGEGLEWIGFISYSGITNYNPSLQGRVTISRDNSKNTLYLQMNSLRAEDTAVYYCARSLARTTAMDYWGEGTLVTVSSAKTTPPSVYPLAPGSAAQTNSMVTLGCLVKGYFPEPVTVTWNSGSLSSGVHTFPAVLQSDLYTLSSSVTVPSSTWPSETVTCNVAHPASSTKVDKKIVPRDCGCKPCICTAYEVENVFIFPPKPKDVLTITLTPKVTCVVVDISKDDPEVQFSWFVDDVEVHTAQTQPREEQFNSTFRSVSELPIMHQDWLNGKEFKCRVNSAAFPAPIEKTISKTKGRPKAPQVYTIPPPKEQMAKDKVSLTCMITDFFPEDITVEWQWNGQPAENYKNTQPIMDTDGSYFVYSKLNVQKSNWEAGNTFTCSVLHEGLHNHHTEKSLSHSPGK
light: not shown
notes: copies: 2 + 2
With B3, the Kd in the assay with mouse FcγRIII [1] is 3.52 µM; with mouse FcγRII [2] it was 339 nM. The “relative mFcγRIII-binding activity (mIgG1 = 1)” value with mouse FcγRIII [3] came out at 0.14 fold. Further, the “relative mFcγRII-binding activity (mIgG1 = 1)” value in the assay with mouse FcγRII [4] was 0.96 fold.

B4: H237-MB694/MRAL-k0 (antibody, mouse IgG1, kappa)
heavy: QVQLQESGPGLVKPSETLSLTCAVSGHSISHDHAWSWVRQPPGEGLEWIGFISYSGITNYNPSLQGRVTISRDNSKNTLYLQMNSLRAEDTAVYYCARSLARTTAMDYWGEGTLVTVSSAKTTPPSVYPLAPGSAAQTNSMVTLGCLVKGYFPEPVTVTWNSGSLSSGVHTFPAVLQSDLYTLSSSVTVPSSTWPSETVTCNVAHPASSTKVDKKIVPRDCGCKPCICEDPEVEYVFIFPPKPKDVLTITLTPKVTCVVVDISKDDPEVQFSWFVDDVEVHTAQTQPREEQFNSTFRSVSELPIMHQDWLNGKEFKCRVNSAAFPAPIEKTISKTKGRPKAPQVYTIPPPKEQMAKDKVSLTCMITDFFPEDITVEWQWNGQPAENYKNTQPIMDTDGSYFVYSKLNVQKSNWEAGNTFTCSVLHEGLHNHHTEKSLSHSPGK
light: not shown
notes: copies: 2 + 2
B4: the values for the Kd with mouse FcγRIII [1] and with mouse FcγRII [2] were 16.4 µM and 598 nM, respectively. The “relative mFcγRIII-binding activity (mIgG1 = 1)” value with mouse FcγRIII [3] was found to be 0.03 fold. Moreover, in the assay with mouse FcγRII [4], the “relative mFcγRII-binding activity (mIgG1 = 1)” value is 0.54 fold.
